Measurements taken from US20220154156A1, “PROTEINS AND METHODS FOR DISRUPTING BACTERIAL COMMUNICATION” (REGENTS OF THE UNIVERSITY OF MINNESOTA, priority 2019, published 2022).

How the values were obtained:
[1] = system: biofilm of complex soil microbial community; test: Biofilm microbial community analysis (16S, MiSeq); type: cell-based
Method: DNA extractions were carried out on biofilms. Submerged wells from the strip-well plates were drained of excess cells/water. Biofilm was scraped from the polypropylene well and put into Powerbead® tubes for DNA extraction (MoBio Powersoil® DNA Extraction Kit). Purified DNA samples were submitted to the University of Minnesota's Genomics Center for 16S rRNA sequencing. Using the Genomics Center platform, each sample underwent amplification, indexing, normalization, pooling, size selection, and final QC for sequencing. The V4 region of the 16s rRNA gene was amplified using primer 515f (5′-GTGCCAGCMGCCGCGGTAA-3′ (SEQ ID NO:14)). After the library preparation steps, it was confirmed all samples passed QC and were submitted for sequencing.
All samples were processed using Mothur v1.35.1. For each sample, 1,250 sequences were used for final analyses. […] Analysis of similarity (ANOSIM) and analysis of molecular variances (AMOVA) were used to evaluate the beta diversity (community composition) among samples using Bray-Curtis dissimilarity matrices (BC) (Bray & Curtis 1957; Clarke 1993). Ordination of Bray-Curtis matrices was performed using principal coordinate analysis (PCoA) to further analyze diversity of sample days throughout the tank (Anderson & Willis 2003). […] All of alpha values evaluated at α=0.05.

[2] = system: suspension soil microbial community; test: Effect of lactonase on suspension soil community; type: cell-based; conditions: 0.5 mg/mL, days 3 and 7
Method: Inoculum were prepared by re-suspending about 5 grams of soil (taken outside GortnerLab building, Saint Paul Campus, Saint Paul, Minn., USA) in 40 mL of water. After a homogenous mixture was achieved, the suspension was lightly centrifuged (5 min, 500×g) and 200 uL of the cloudy supernatant was added to 30 mL of LB media and allowed to grow overnight. This inoculum was used to inoculate 15× diluted LB media (in water) cultures. […] Samples were collected for DNA extraction after 3 and 7 days.
All samples were processed using Mothur v1.35.1. For each sample, 1,250 sequences were used for final analyses. […] Analysis of similarity (ANOSIM) and analysis of molecular variances (AMOVA) were used to evaluate the beta diversity (community composition) among samples using Bray-Curtis dissimilarity matrices (BC) (Bray & Curtis 1957; Clarke 1993). Ordination of Bray-Curtis matrices was performed using principal coordinate analysis (PCoA) to further analyze diversity of sample days throughout the tank (Anderson & Willis 2003). To visualize the distribution of taxonomies and diversities in microbial communities among the samples, R v3.3.1 was used to conduct the normalized relative abundance and OTUs at genus level^45. All of alpha values evaluated at α=0.05.

B1: SsoPox W263I: improved variant of the hyperthermostable lactonase SsoPox from Sulfolobus solfataricus, exhibiting higher catalytic rates (protein, UniProt Q97VT7 1-314, looked up, variant W263I)
Aryldialkylphosphatase: MRIPLVGKDSIESKDIGFTLIHEHLRVFSEAVRQQWPHLYNEDEEFRNAVNEVKRAMQFGVKTIVDPTVMGLGRDIRFMEKVVKATGINLVAGTGIYIYIDLPFYFLNRSIDEIADLFIHDIKEGIQGTLNKAGFVKIAADEPGITKDVEKVIRAAAIANKETKVPIITHSNAHNNTGLEQQRILTEEGVDPGKILIGHLGDTDNIDYIKKIADKGSFIGLDRYGLDLFLPVDKRNETTLRLIKDGYSDKIMISHDYCCTIDIGTAKPEYKPKLAPRWSITLIFEDTIPFLKRNGVNEEVIATIFKENPKKFFS
Aeromonas share of the biofilm community ([1]; day 7, lactonase 1×): 79.68% | Aeromonas share of the biofilm community ([1]; day 7, lactonase 2×): 42.16% | composition of suspension community vs inactive variant [2]: communities are significantly different
